Laboratory results taken from PMC7904846, “Nanobody-based chimeric antigen receptor T cells designed by CRISPR/Cas9 technology for solid tumor immunotherapy” (Signal Transduction and Targeted Therapy, 2021).

Molecular target: T1, CD105 (Homo sapiens, UniProt P17813)
T1 construct: CD105 (endoglin), human; also called endoglin; CD105 protein
Assay: SPR; CD105 Nbs (10 ug/mL) immobilised on PlexArray Nanocapture Sensor Chips; different concentrations injected at 3.0 uL/s; PlexArray HT system; regeneration with 0.05 mol/L NaOH; 25 °C; triplicate
Conditions: both partners purified

T1 sequence (P17813 26-658): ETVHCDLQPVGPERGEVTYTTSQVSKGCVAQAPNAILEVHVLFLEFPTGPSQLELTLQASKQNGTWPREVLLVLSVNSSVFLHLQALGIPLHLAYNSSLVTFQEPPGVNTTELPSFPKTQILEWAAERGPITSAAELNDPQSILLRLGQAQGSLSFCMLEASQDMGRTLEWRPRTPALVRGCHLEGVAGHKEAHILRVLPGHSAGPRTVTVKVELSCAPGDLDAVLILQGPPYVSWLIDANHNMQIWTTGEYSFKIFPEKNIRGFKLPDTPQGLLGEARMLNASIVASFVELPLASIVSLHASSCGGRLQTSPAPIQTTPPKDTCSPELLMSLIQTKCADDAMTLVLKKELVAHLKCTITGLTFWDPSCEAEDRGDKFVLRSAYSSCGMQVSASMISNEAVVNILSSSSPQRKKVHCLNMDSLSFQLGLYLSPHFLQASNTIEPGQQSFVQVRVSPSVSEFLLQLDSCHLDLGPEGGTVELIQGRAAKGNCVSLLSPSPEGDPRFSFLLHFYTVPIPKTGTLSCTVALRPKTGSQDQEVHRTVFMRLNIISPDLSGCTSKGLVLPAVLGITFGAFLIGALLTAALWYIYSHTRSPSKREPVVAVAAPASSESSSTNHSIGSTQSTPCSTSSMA

B1: Nb C184 (VHH)
VHH: QVQLQESGGGSVQAGGSLRLSCVASGYTVSRGYMGWFRQAPGKEREAVAAIRTGSGSTYYADSVKGRFTISQDNAKNTVYLQMNSLKHEDTGMYYCAASLWYGGNWQSWGSYNYWGQGTQVTVSS
notes: camel VHH selected by phage display against CD105; Cloned in phagemid pMECS, which gives C-terminal hemagglutinin-His6-tagged Nbs; In the CAR the same VHH is joined to the CD8a hinge and transmembrane domain, 4-1BB and CD3zeta; also called anti-CD105 Nanobody (C184); CD105 Nb
B1: binds.
